Source: the supplement of paper PMC9112550, “Optimization of the antimicrobial peptide Bac7 by deep mutational scanning” (BMC Biology, 2022)

Tested on: Escherichia coli TOP10
Test: shrunken log2 fold change of peptide-encoding DNA abundance (4.5 h post-induction vs induction); higher = less antimicrobial activity (less host growth inhibition)
Conditions: time post-induction: 4.5 h; library: site-saturation at positions 5, 18, 19, 20
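Further: peptides expressed intracellularly from a pBAD plasmid library in pooled LB shake-flask culture, induced with 0.3% L-arabinose, DNA abundance read by NGS, three biological replicates, DESeq2 with apeglm shrinkage.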

Sequence	shrunken log2 fold change
RRIRQRPPRLPRPRPRPTNRPRP	0.0327
RRIRQRPPRLPRPRPRPTNYPRP	-0.248
RRIRQRPPRLPRPRPRPTQIPRP	0.223
RRIRQRPPRLPRPRPRPTRDPRP	-0.271
RRIRQRPPRLPRPRPRPTSKPRP	-0.189
RRIRQRPPRLPRPRPRPTTQPRP	0.0143
RRIRQRPPRLPRPRPRPTWPPRP	0.268
RRIRQRPPRLPRPRPRPVDMPRP	-0.108
RRIRQRPPRLPRPRPRPVDSPRP	0.0997
RRIRQRPPRLPRPRPRPVFLPRP	-0.218
RRIRQRPPRLPRPRPRPVFRPRP	-0.0986
RRIRQRPPRLPRPRPRPVGYPRP	0.101
RRIRQRPPRLPRPRPRPVHRPRP	-0.0635
RRIRQRPPRLPRPRPRPVKFPRP	-0.0717
RRIRQRPPRLPRPRPRPVKQPRP	-0.0153
RRIRQRPPRLPRPRPRPVLMPRP	0.111
RRIRQRPPRLPRPRPRPVMDPRP	-0.39
RRIRQRPPRLPRPRPRPVMGPRP	0.0224
RRIRQRPPRLPRPRPRPVMKPRP	-0.212
RRIRQRPPRLPRPRPRPVMWPRP	0.448
RRIRQRPPRLPRPRPRPVNCPRP	-0.0672
RRIRQRPPRLPRPRPRPVNDPRP	-0.0199
RRIRQRPPRLPRPRPRPVNFPRP	-0.346
RRIRQRPPRLPRPRPRPVPNPRP	0.154
RRIRQRPPRLPRPRPRPVQVPRP	-0.0564

Sequence	shrunken log2 fold change
RRIRQRPPRLPRPRPRPVRIPRP	-0.0391
RRIRQRPPRLPRPRPRPVSGPRP	0.179
RRIRQRPPRLPRPRPRPVSMPRP	-0.181
RRIRQRPPRLPRPRPRPVTAPRP	-0.362
RRIRQRPPRLPRPRPRPVTIPRP	-0.0898
RRIRQRPPRLPRPRPRPVTQPRP	-0.378
RRIRQRPPRLPRPRPRPVTYPRP	-0.219
RRIRQRPPRLPRPRPRPVVIPRP	-0.292
RRIRQRPPRLPRPRPRPVVLPRP	-0.227
RRIRQRPPRLPRPRPRPVYRPRP	-0.308
RRIRQRPPRLPRPRPRPWAIPRP	0.0485
RRIRQRPPRLPRPRPRPWATPRP	0.136
RRIRQRPPRLPRPRPRPWCFPRP	-0.263
RRIRQRPPRLPRPRPRPWFMPRP	-1.08
RRIRQRPPRLPRPRPRPWGPPRP	0.0893
RRIRQRPPRLPRPRPRPWGTPRP	-0.239
RRIRQRPPRLPRPRPRPWHAPRP	-0.106
RRIRQRPPRLPRPRPRPWHKPRP	-0.334
RRIRQRPPRLPRPRPRPWHSPRP	-0.00968
RRIRQRPPRLPRPRPRPWKGPRP	0.013
RRIRQRPPRLPRPRPRPWKMPRP	-0.112
RRIRQRPPRLPRPRPRPWLDPRP	0.19
RRIRQRPPRLPRPRPRPWLQPRP	0.188
RRIRQRPPRLPRPRPRPWNPPRP	-0.0759
RRIRQRPPRLPRPRPRPWNYPRP	-0.201

Sequence	shrunken log2 fold change
RRIRQRPPRLPRPRPRPWRFPRP	-0.113
RRIRQRPPRLPRPRPRPWTHPRP	0.00902
RRIRQRPPRLPRPRPRPWVFPRP	-0.227
RRIRQRPPRLPRPRPRPWYLPRP	-0.176
RRIRQRPPRLPRPRPRPWYMPRP	-0.237
RRIRQRPPRLPRPRPRPYASPRP	-0.00547
RRIRQRPPRLPRPRPRPYAVPRP	-0.00389
RRIRQRPPRLPRPRPRPYCMPRP	-0.302
RRIRQRPPRLPRPRPRPYCPPRP	-0.422
RRIRQRPPRLPRPRPRPYCVPRP	-0.00867
RRIRQRPPRLPRPRPRPYDGPRP	-0.101
RRIRQRPPRLPRPRPRPYFAPRP	-0.292
RRIRQRPPRLPRPRPRPYFFPRP	-0.706
RRIRQRPPRLPRPRPRPYFHPRP	-0.563
RRIRQRPPRLPRPRPRPYFVPRP	-0.472
RRIRQRPPRLPRPRPRPYGLPRP	-0.048
RRIRQRPPRLPRPRPRPYGQPRP	-0.239
RRIRQRPPRLPRPRPRPYHQPRP	-0.631
RRIRQRPPRLPRPRPRPYILPRP	-0.773
RRIRQRPPRLPRPRPRPYKRPRP	-0.213
RRIRQRPPRLPRPRPRPYMIPRP	0.00875
RRIRQRPPRLPRPRPRPYNNPRP	-1.04
RRIRQRPPRLPRPRPRPYPLPRP	-0.73
RRIRQRPPRLPRPRPRPYQVPRP	-0.0417
RRIRQRPPRLPRPRPRPYQYPRP	-0.016

Sequence	shrunken log2 fold change
RRIRQRPPRLPRPRPRPYRDPRP	-0.204
RRIRQRPPRLPRPRPRPYRPPRP	-0.103
RRIRQRPPRLPRPRPRPYRQPRP	0.00902
RRIRQRPPRLPRPRPRPYSEPRP	0.0294
RRIRQRPPRLPRPRPRPYSWPRP	0.0415
RRIRQRPPRLPRPRPRPYTMPRP	-0.128
RRIRQRPPRLPRPRPRPYTQPRP	-0.25
RRIRQRPPRLPRPRPRPYVMPRP	-0.108
RRIRQRPPRLPRPRPRPYWKPRP	0.000139
RRIRQRPPRLPRPRPRPYYPPRP	0.0338
RRIRRRPPRLPRPRPRPAAIPRP	0.181
RRIRRRPPRLPRPRPRPADSPRP	-0.0331
RRIRRRPPRLPRPRPRPAFSPRP	-0.00711
RRIRRRPPRLPRPRPRPAGFPRP	0.439
RRIRRRPPRLPRPRPRPAHLPRP	0.178
RRIRRRPPRLPRPRPRPAIAPRP	0.468
RRIRRRPPRLPRPRPRPAIFPRP	-0.0696
RRIRRRPPRLPRPRPRPAIKPRP	0.304
RRIRRRPPRLPRPRPRPAINPRP	-0.0133
RRIRRRPPRLPRPRPRPAIVPRP	0.275
RRIRRRPPRLPRPRPRPAKQPRP	0.136
RRIRRRPPRLPRPRPRPALAPRP	0.516
RRIRRRPPRLPRPRPRPAMAPRP	0.342
RRIRRRPPRLPRPRPRPAMGPRP	0.142
RRIRRRPPRLPRPRPRPANCPRP	0.00326

Sequence	shrunken log2 fold change
RRIRRRPPRLPRPRPRPANFPRP	-0.0416
RRIRRRPPRLPRPRPRPAPDPRP	1.65
RRIRRRPPRLPRPRPRPAPPPRP	0.778
RRIRRRPPRLPRPRPRPAPVPRP	1.06
RRIRRRPPRLPRPRPRPAQSPRP	0.247
RRIRRRPPRLPRPRPRPARSPRP	0.512
RRIRRRPPRLPRPRPRPATDPRP	0.204
RRIRRRPPRLPRPRPRPATVPRP	-0.037
RRIRRRPPRLPRPRPRPAWKPRP	0.2
RRIRRRPPRLPRPRPRPAWWPRP	1.01
RRIRRRPPRLPRPRPRPAYVPRP	0.0253
RRIRRRPPRLPRPRPRPCAPPRP	0.275
RRIRRRPPRLPRPRPRPCCCPRP	0.0202
RRIRRRPPRLPRPRPRPCCHPRP	-0.345
RRIRRRPPRLPRPRPRPCCRPRP	0.197
RRIRRRPPRLPRPRPRPCDFPRP	-0.128
RRIRRRPPRLPRPRPRPCDQPRP	0.0305
RRIRRRPPRLPRPRPRPCFLPRP	-0.269
RRIRRRPPRLPRPRPRPCFMPRP	-0.207
RRIRRRPPRLPRPRPRPCFQPRP	-0.0758
RRIRRRPPRLPRPRPRPCGDPRP	0.478
RRIRRRPPRLPRPRPRPCHEPRP	-0.0891
RRIRRRPPRLPRPRPRPCKCPRP	-0.01
RRIRRRPPRLPRPRPRPCKFPRP	0.123
RRIRRRPPRLPRPRPRPCLCPRP	-0.00345

Sequence	shrunken log2 fold change
RRIRRRPPRLPRPRPRPCLGPRP	-0.0846
RRIRRRPPRLPRPRPRPCLMPRP	0.434
RRIRRRPPRLPRPRPRPCNMPRP	-0.152
RRIRRRPPRLPRPRPRPCNNPRP	-0.368
RRIRRRPPRLPRPRPRPCPMPRP	-0.0862
RRIRRRPPRLPRPRPRPCQEPRP	0.139
RRIRRRPPRLPRPRPRPCQRPRP	0.0494
RRIRRRPPRLPRPRPRPCRNPRP	0.0376
RRIRRRPPRLPRPRPRPCTNPRP	0.0186
RRIRRRPPRLPRPRPRPCVRPRP	0.11
RRIRRRPPRLPRPRPRPCWCPRP	-0.138
RRIRRRPPRLPRPRPRPCWWPRP	0.261
RRIRRRPPRLPRPRPRPDAKPRP	0.644
RRIRRRPPRLPRPRPRPDCAPRP	0.345
RRIRRRPPRLPRPRPRPDDPPRP	-0.0033
RRIRRRPPRLPRPRPRPDETPRP	0.745
RRIRRRPPRLPRPRPRPDGFPRP	0.14
RRIRRRPPRLPRPRPRPDHEPRP	0.152
RRIRRRPPRLPRPRPRPDHKPRP	0.027
RRIRRRPPRLPRPRPRPDINPRP	-0.243
RRIRRRPPRLPRPRPRPDKAPRP	-0.131
RRIRRRPPRLPRPRPRPDKKPRP	0.0135
RRIRRRPPRLPRPRPRPDLCPRP	0.00591
RRIRRRPPRLPRPRPRPDLSPRP	-0.0391
RRIRRRPPRLPRPRPRPDLVPRP	0.0743
